Where only a bound is given, the exact number is not on record here.

Common to all, as to test: cell-based or functional assay
Assay [1] deals with SARS-CoV-2 spike (S) protein, Omicron variant BA.2.12.1 (SARS-CoV-2) (UniProt P0DTC2).
In assay [2] the target is SARS-CoV-2 spike protein, Beta variant 1 (B.1.351 v1) (SARS-CoV-2).
The target of assay [3] is SARS-CoV-2 spike protein, Gamma variant (P.1) (SARS-CoV-2).
Assay [4] addresses SARS-CoV-2 spike protein, Delta variant (B.1.617.2) (SARS-CoV-2).
For assay [5], the target named is SARS-CoV-2 spike (S) protein, Omicron variant BA.1 (SARS-CoV-2) (UniProt P0DTC2).
The target of assay [6] is SARS-CoV-2 spike protein, Mu variant (B.1.621) (SARS-CoV-2).
Assay [7] deals with SARS-CoV-2 spike (S) protein, Omicron variant BA.2 (SARS-CoV-2) (UniProt P0DTC2).
Assay [8] concerns the target SARS-CoV-2 spike protein, C.1.2 variant (SARS-CoV-2).
Assay [9] has as its target SARS-CoV-2 spike protein, Alpha variant (B.1.1.7) (SARS-CoV-2).
The target of assay [10] is SARS-CoV-2 spike (S) protein of Omicron sublineage BJ.1 (R346T, V445P, G446S) (SARS-CoV-2) (UniProt P0DTC2).
Assay [11] deals with SARS-CoV-2 spike (S) protein of Omicron sublineage BQ.1.1 (R346T, K444T, F486V) (SARS-CoV-2) (UniProt P0DTC2).
The target of assay [12] is SARS-CoV-2 spike (S) protein of Omicron sublineage BA.2.75 (G446S) (SARS-CoV-2) (UniProt P0DTC2).

MX491 (A23-58H/B1-182L × A19-46 CL-CH1) (bispecific antibody), sequence (chain): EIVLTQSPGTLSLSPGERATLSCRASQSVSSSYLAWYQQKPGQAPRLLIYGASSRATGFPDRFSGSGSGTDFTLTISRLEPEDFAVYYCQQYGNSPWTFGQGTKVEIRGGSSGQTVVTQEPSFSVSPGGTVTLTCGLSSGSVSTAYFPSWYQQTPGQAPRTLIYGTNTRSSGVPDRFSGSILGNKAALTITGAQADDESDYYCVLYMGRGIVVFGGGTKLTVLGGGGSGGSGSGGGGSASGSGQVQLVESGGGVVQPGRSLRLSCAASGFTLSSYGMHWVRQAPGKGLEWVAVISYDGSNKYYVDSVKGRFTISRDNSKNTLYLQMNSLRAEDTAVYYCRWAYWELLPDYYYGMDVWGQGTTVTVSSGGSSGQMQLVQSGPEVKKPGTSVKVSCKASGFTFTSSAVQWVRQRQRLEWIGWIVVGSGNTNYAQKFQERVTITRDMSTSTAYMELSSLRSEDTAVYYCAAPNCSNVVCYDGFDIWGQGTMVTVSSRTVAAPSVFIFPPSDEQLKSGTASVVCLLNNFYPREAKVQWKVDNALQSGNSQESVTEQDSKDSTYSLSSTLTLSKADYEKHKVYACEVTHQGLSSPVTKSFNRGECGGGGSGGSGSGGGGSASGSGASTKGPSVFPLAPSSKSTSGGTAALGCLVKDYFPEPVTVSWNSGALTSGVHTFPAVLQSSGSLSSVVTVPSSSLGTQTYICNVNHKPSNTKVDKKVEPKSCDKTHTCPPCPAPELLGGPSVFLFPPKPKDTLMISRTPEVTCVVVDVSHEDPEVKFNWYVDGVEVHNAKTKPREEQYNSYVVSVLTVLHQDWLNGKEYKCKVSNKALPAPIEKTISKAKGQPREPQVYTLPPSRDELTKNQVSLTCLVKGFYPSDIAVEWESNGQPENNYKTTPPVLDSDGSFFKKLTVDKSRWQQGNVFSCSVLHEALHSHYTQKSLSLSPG
MX180 (B1-182 × A19-46) (bispecific antibody), sequence (chain): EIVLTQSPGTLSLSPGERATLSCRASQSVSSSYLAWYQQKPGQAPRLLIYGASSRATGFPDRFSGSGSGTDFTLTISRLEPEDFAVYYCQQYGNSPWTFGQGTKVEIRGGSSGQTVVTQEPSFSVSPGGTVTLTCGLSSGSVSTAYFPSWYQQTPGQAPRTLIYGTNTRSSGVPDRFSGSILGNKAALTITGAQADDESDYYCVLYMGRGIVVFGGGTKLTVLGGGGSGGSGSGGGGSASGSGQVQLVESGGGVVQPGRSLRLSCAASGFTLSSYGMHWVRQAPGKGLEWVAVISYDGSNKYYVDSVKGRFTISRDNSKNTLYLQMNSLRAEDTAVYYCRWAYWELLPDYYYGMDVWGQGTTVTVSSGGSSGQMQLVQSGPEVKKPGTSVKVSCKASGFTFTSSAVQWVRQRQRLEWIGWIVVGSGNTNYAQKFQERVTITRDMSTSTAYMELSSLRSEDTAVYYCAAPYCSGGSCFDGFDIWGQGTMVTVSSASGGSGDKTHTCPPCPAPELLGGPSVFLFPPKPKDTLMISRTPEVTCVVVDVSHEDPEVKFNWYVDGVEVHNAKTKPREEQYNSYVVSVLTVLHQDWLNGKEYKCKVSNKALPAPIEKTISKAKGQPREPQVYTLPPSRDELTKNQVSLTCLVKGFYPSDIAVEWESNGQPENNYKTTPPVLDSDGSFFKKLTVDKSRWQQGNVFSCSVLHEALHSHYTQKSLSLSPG
MX492 (A19-46 × A23-58H/B1-182L) (bispecific antibody), sequence (chain): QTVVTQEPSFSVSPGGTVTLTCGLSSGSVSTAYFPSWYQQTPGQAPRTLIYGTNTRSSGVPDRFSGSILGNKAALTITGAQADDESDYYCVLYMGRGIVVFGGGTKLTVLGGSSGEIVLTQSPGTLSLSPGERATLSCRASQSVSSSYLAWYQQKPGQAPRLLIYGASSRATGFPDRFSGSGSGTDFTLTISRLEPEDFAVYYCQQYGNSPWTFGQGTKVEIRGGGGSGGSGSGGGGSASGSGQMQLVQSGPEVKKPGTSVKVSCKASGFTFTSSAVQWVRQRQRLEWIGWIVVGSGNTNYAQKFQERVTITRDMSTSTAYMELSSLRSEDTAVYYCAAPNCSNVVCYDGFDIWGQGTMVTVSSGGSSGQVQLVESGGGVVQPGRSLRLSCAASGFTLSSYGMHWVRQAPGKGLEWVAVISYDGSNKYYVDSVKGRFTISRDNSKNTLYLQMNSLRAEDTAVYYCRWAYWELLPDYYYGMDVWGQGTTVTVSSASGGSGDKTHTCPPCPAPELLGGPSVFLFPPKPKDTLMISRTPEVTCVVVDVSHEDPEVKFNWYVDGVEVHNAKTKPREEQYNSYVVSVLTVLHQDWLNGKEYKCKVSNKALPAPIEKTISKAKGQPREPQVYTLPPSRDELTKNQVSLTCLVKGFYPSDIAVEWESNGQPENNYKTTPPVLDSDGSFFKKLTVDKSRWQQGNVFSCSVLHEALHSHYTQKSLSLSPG
MX412 (A23-58H/B1-182L × A19-61) (bispecific antibody), sequence (chain): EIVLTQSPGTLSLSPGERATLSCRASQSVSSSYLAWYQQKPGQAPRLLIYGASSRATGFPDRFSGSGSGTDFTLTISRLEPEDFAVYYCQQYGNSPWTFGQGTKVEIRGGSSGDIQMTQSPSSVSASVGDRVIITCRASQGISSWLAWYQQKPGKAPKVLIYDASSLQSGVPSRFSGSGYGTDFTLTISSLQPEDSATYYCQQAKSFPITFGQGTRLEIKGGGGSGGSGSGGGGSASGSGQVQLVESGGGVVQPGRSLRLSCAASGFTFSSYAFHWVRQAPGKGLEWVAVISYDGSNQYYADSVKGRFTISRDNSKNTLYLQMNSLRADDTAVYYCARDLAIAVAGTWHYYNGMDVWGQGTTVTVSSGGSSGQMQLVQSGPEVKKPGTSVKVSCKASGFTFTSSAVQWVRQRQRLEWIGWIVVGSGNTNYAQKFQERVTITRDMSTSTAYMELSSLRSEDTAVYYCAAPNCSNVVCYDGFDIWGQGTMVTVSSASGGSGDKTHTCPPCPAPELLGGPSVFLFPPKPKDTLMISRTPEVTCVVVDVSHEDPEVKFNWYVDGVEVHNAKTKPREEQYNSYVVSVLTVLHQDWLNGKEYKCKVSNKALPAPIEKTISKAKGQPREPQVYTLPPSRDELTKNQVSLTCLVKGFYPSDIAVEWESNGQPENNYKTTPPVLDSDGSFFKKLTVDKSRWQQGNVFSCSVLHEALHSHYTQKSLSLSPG
A19-46.1 antibody, sequence (VH): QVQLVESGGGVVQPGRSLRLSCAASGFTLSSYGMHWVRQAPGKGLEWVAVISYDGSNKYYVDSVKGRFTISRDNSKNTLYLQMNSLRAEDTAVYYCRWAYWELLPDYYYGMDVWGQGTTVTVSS
A19-46.1 antibody, sequence (VL): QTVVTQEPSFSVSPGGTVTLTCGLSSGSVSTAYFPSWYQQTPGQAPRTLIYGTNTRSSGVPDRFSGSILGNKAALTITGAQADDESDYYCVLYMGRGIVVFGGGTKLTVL
MX467 (A23-58H/B1-182L × A19-61 CL-CH1) (bispecific antibody), sequence (chain): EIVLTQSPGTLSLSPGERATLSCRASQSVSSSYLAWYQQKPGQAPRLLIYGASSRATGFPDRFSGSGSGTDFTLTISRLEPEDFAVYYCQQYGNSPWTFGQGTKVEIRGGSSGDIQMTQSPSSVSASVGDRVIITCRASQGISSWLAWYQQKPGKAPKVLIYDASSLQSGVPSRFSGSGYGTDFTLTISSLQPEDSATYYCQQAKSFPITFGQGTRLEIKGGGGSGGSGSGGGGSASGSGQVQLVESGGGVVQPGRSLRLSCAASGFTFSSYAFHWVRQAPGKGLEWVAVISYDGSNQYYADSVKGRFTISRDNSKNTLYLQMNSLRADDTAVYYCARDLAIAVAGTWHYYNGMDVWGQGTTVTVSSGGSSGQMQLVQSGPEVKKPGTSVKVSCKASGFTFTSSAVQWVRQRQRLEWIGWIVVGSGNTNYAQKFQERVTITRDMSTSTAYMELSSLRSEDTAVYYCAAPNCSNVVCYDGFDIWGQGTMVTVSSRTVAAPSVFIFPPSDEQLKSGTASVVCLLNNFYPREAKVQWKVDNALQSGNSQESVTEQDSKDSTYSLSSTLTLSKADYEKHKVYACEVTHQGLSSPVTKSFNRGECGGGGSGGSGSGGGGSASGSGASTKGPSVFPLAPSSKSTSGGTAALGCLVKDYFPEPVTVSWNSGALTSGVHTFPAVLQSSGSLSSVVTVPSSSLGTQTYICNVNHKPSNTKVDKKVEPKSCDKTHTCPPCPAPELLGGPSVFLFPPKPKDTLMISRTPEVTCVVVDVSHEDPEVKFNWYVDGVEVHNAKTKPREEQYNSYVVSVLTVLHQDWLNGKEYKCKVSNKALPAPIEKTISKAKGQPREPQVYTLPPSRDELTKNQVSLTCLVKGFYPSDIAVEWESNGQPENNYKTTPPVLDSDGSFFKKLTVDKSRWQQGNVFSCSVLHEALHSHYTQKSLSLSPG
MX 490 (A23-58H/B1-182L × A19-46) (bispecific antibody), sequence (chain): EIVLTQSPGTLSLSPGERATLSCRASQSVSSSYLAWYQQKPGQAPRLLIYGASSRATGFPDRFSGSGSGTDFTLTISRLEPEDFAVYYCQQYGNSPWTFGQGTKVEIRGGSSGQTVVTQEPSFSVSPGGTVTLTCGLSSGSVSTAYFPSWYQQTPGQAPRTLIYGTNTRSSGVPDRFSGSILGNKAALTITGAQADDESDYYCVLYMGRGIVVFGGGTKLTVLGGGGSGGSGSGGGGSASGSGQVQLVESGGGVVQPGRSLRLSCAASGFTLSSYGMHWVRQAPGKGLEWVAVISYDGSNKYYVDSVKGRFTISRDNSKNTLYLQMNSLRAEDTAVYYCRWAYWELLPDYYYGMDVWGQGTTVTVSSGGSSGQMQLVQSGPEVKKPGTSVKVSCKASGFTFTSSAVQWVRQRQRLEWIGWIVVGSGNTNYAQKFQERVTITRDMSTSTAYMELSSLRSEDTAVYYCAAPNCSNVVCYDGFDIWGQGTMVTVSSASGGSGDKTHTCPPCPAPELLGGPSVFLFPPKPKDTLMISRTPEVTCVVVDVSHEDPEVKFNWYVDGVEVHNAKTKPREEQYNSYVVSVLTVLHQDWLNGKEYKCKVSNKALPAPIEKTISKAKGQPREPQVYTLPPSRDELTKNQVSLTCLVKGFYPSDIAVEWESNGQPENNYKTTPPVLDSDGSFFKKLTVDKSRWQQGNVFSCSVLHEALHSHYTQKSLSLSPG

With A23-58H/B1-182L mAb (antibody), the IC50, pseudovirus neutralization came out at 0.83 nM in assay [1]; 0.0305 nM in assay [2]; 0.0116 nM in assay [3]; 0.0104 nM in assay [4]; 0.364 nM in assay [5]; 0.0402 nM in [6]. Besides, the IC50, pseudovirus neutralization in assay [7] was found to be 0.544 nM; in assay [8], 0.0207 nM; in assay [9], 0.0174 nM. For the same substance, the IC80, pseudovirus neutralization in assay [1] is 3.27 nM; in [2] it was 0.0966 nM; in assay [3], 0.0237 nM; in [4], 0.0205 nM; in [5], 1.39 nM; in assay [6], 0.108 nM. Besides, the values for the IC80, pseudovirus neutralization in assay [7], in [8] and in [9] were 2.48 nM, 0.0348 nM and 0.0376 nM, respectively.
Take “MX180 (B1-182 × A19-46) (bispecific antibody)”: the IC50, pseudovirus neutralization in assay [1] came to 0.584 nM; in assay [5], 0.0187 nM; in assay [7], 0.041 nM. Also, the IC80, pseudovirus neutralization in assay [1] was found to be 2.82 nM; in assay [5], 0.0652 nM; in [7], 0.103 nM.
With A19-46.1 antibody, the IC50, pseudovirus neutralization in assay [10] is greater than 10000 nM; in assay [11], greater than 10000 nM; in assay [12], 148 nM. In addition, the results for the IC80, pseudovirus neutralization in [10], in assay [11] and in assay [12] were greater than 10000 nM, greater than 10000 nM and 352 nM, respectively.
Consider “MX409 (A23-58H/B1-182L Tetravalent) (antibody)”, for which the IC50, pseudovirus neutralization in assay [1] was 8.96 nM; in assay [2], 0.0073 nM; in assay [3], 0.00182 nM; in assay [4], 0.00313 nM; in assay [5] it was 2.03 nM; in assay [6], 0.0046 nM. Besides, the results for the IC50, pseudovirus neutralization in assay [7], in assay [8] and in assay [9] were 4.9 nM, 0.005 nM and 0.0139 nM, respectively. The IC80, pseudovirus neutralization in assay [1] was 52.7 nM; in assay [2] it was 0.0175 nM; in assay [3] it was 0.00565 nM; in [4], 0.00882 nM; in assay [5], greater than 66.7 nM; in [6], 0.0124 nM. Further, the IC80, pseudovirus neutralization in assay [7] is greater than 66.7 nM; in assay [8], 0.0099 nM; in assay [9] it was 0.0286 nM.
For “MX493 (A19-46 × A23-58H/B1-182L CL-CH1) (bispecific antibody)”, the results for the IC50, pseudovirus neutralization in [1], in [5] and in [7] were 0.0331 nM, 0.0158 nM and 0.02 nM, respectively. The IC80, pseudovirus neutralization in [1] was 0.0858 nM; in [5], 0.0387 nM; in [7], 0.0464 nM.
Turning to “MX468 (A19-61 × A23-58H/B1-182L CL-CH1) (bispecific antibody)”, the IC50, pseudovirus neutralization in [1] was 0.0224 nM; in assay [5], 1.33 nM; in assay [7], 0.0289 nM. The IC80, pseudovirus neutralization in [1] worked out at 0.0698 nM; in assay [5], 4.06 nM; in assay [7], 0.0617 nM.
Consider “MX492 (A19-46 × A23-58H/B1-182L) (bispecific antibody)”, for which the IC50, pseudovirus neutralization came out at 0.107 nM in assay [1], 0.0058 nM in assay [5] and 0.0201 nM in [7]. The IC80, pseudovirus neutralization in assay [1] stood at 0.93 nM; in assay [5], 0.0369 nM; in [7] it was 0.0451 nM.
Regarding “MX413 (A19-61 x A23-58H/B1-182L) bispecific, tetravalent molecule with Fc (bispecific antibody)”, the figures for the IC50, pseudovirus neutralization in assay [10], in [11] and in assay [12] were 3210 nM, greater than 10000 nM and 21 nM, respectively. In addition, the IC80, pseudovirus neutralization in [10] is greater than 10000 nM; in [11], greater than 10000 nM; in assay [12] it was 71 nM.
“MX413 (A19-61 × A23-58H/B1-182L) (bispecific antibody)”: the IC50, pseudovirus neutralization in assay [1] came to 0.0149 nM; in [2], 0.0386 nM; in [3], 0.025 nM; in assay [4], 0.0193 nM; in assay [5], 6.58 nM; in assay [6] it was 0.089 nM. The results for the IC50, pseudovirus neutralization in assay [7], in [8] and in assay [9] were 0.0141 nM, 0.0109 nM and 0.0547 nM, respectively. The IC80, pseudovirus neutralization in assay [1] worked out at 0.0614 nM; in [2], 0.092 nM; in assay [3], 0.0547 nM; in assay [4] it was 0.0655 nM; in assay [5] it was 20.5 nM; in assay [6], 0.166 nM. Besides, the IC80, pseudovirus neutralization was found to be 0.0466 nM in [7], 0.026 nM in [8] and 0.141 nM in assay [9].
In the case of “MX466 (A23-58H/B1-182L Cl-CH1 Tetravalent) (antibody)”, the values for the IC50, pseudovirus neutralization in assay [1], in assay [5] and in assay [7] were 0.586 nM, 0.57 nM and 2.47 nM, respectively. Further, the values for the IC80, pseudovirus neutralization in assay [1], in [5] and in assay [7] were 18 nM, 8.23 nM and 44.2 nM, respectively.
For “MX467 (A23-58H/B1-182L × A19-61 CL-CH1) (bispecific antibody)”, the IC50, pseudovirus neutralization in assay [1] was 0.0181 nM; in [5], 18.5 nM; in assay [7] it was 0.0373 nM. Moreover, the IC80, pseudovirus neutralization stood at 0.127 nM in assay [1], 69.4 nM in assay [5] and 0.0738 nM in assay [7].
With “MX179 (A19-46 × B1-182) (bispecific antibody)”, the IC50, pseudovirus neutralization in [1] was 0.167 nM; in [5], 0.0068 nM; in [7], 0.0137 nM. The IC80, pseudovirus neutralization in assay [1] is 0.929 nM; in assay [5], 0.0193 nM; in assay [7], 0.0389 nM.
As to A23-58 mAb (antibody), the IC50, pseudovirus neutralization in assay [1] was 0.647 nM; in assay [2] it was 0.123 nM; in assay [3], 0.0097 nM; in assay [4], 0.0133 nM; in assay [5], 0.853 nM; in assay [6] it was 0.124 nM. In addition, the IC50, pseudovirus neutralization in [7] was 1.68 nM; in [8], 0.0287 nM; in [9] it was 0.0329 nM. Moreover, the IC80, pseudovirus neutralization in assay [1] turned out to be 4.96 nM; in [2], 0.339 nM; in assay [3] it was 0.0437 nM; in [4], 0.0358 nM; in assay [5], 4.24 nM; in [6] it was 0.26 nM. Further, the figures for the IC80, pseudovirus neutralization in assay [7], in [8] and in [9] were 5.69 nM, 0.0656 nM and 0.104 nM, respectively.
Regarding “MX491 (A23-58H/B1-182L × A19-46 CL-CH1) (bispecific antibody)”, the IC50, pseudovirus neutralization in [1] came out at 1.44 nM; in [5], 0.0316 nM; in [7] it was 0.0489 nM. The IC80, pseudovirus neutralization in [1] stood at 7.81 nM; in assay [5] it was 0.0928 nM; in [7] it was 0.114 nM.
For the substance “MX412 (A23-58H/B1-182L × A19-61) (bispecific antibody)”, the IC50, pseudovirus neutralization came to 0.0615 nM in assay [1]; 0.0365 nM in [2]; 0.042 nM in assay [3]; 0.0279 nM in assay [4]; 8.96 nM in [5]; 0.583 nM in [6]. For the same substance, the IC50, pseudovirus neutralization was 0.0304 nM in assay [7], 0.014 nM in assay [8] and 0.058 nM in [9]. For the same substance, the IC80, pseudovirus neutralization was determined as 0.178 nM in [1]; 0.084 nM in [2]; 0.0885 nM in assay [3]; 0.0625 nM in assay [4]; 31.8 nM in [5]; 1.78 nM in assay [6]. In addition, the IC80, pseudovirus neutralization amounted to 0.0803 nM in assay [7], 0.0528 nM in assay [8] and 0.143 nM in assay [9].
For “MX 490 (A23-58H/B1-182L × A19-46) (bispecific antibody)”, the IC50, pseudovirus neutralization was greater than 6.7 nM in assay [1], 0.22 nM in assay [5] and 0.392 nM in [7]. Further, the IC80, pseudovirus neutralization in assay [1] was greater than 6.7 nM; in assay [5], 0.484 nM; in [7] it was 0.896 nM.

Values taken from patent publication US20240109955A1.
